# Laboratory results reported in patent US20230203202A1 (DRAGONFLY THERAPEUTICS, published 2023).
# Where a chain is given by its changes, count along the chain named.
# T1: human 5T4 on the cell surface (human, UniProt Q13641 32-420)
# T1 construct: whole, on cells; also called h5T4; TPBG
# T1 sequence (looked up): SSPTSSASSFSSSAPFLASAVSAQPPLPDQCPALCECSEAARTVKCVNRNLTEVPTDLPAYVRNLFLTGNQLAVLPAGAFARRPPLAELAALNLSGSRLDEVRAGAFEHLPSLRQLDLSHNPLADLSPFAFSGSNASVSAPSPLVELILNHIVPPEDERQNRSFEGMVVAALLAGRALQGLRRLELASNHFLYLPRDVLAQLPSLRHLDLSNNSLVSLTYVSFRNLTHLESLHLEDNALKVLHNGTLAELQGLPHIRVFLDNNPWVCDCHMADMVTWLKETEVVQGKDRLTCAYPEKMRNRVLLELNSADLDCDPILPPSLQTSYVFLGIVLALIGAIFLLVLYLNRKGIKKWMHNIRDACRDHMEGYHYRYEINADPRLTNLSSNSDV
# B1: AB1878-TriNKET® (bispecific antibody, human IgG1, kappa)
# chain: DIQLTQSPSSLSASVGDRVTITCRASQSVTTSNYNYMHWFQQKPGKAPKLLIKFASNLESGVPSRFSGSGSGTDFTLTISSLQPEDFATYYCQHSWEIPWTFGCGTKVEIKGGGGSGGGGSGGGGSGGGGSEVQLVESGGGLVKPGGSLRLSCAASRFTFSDFGMHWVRQAPGKCLEWVSYISSGSSTIYYADTVKGRFTISRDNAKNSLYLQMNSLRAEDTAVYYCASSQSYYRGTLDYWGQGTTVTVSSGSDKTHTCPPCPAPELLGGPSVFLFPPKPKDTLMISRTPEVTCVVVDVSHEDPEVKFNWYVDGVEVHNAKTKPREEQYNSTYRVVSVLTVLHQDWLNGKEYKCKVSNKALPAPIEKTISKAKGQPREPRVYTLPPCRDELTKNQVSLTCLVKGFYPSDIAVEWESNGQPENNYKTTPPVLVSDGSFTLYSKLTVDKSRWQQGNVFSCSVMHEALHNHYTQKSLSLSPG
# heavy: EVQLVESGGGLVKPGGSLRLSCAASGFTFSSYSMNWVRQAPGKGLEWVSSISSSSSYIYYADSVKGRFTISRDNAKNSLYLQMNSLRAEDTAVYYCARGAPIGAAAGWFDPWGQGTLVTVSSASTKGPSVFPLAPSSKSTSGGTAALGCLVKDYFPEPVTVSWNSGALTSGVHTFPAVLQSSGLYSLSSVVTVPSSSLGTQTYICNVNHKPSNTKVDKKVEPKSCDKTHTCPPCPAPELLGGPSVFLFPPKPKDTLMISRTPEVTCVVVDVSHEDPEVKFNWYVDGVEVHNAKTKPREEQYNSTYRVVSVLTVLHQDWLNGKEYKCKVSNKALPAPIEKTISKAKGQPREPQVCTLPPSRDELTENQVSLTCLVKGFYPSDIAVEWESNGQPENNYKTTPPVLDSDGSFFLYSWLTVDKSRWQQGNVFSCSVMHEALHNHYTQKSLSLSPG
# light: DIQMTQSPSSVSASVGDRVTITCRASQGISSWLAWYQQKPGKAPKLLIYAASSLQSGVPSRFSGSGSGTDFTLTISSLQPEDFATYYCQQGVSFPRTFGGGTKVEIKRTVAAPSVFIFPPSDEQLKSGTASVVCLLNNFYPREAKVQWKVDNALQSGNSQESVTEQDSKDSTYSLSSTLTLSKADYEKHKVYACEVTHQGLSSPVTKSFNRGEC
# notes: F3′ format; also called AB1878-VL-VH TriNKET®; 10F10-IGHV3-21*05 BM1
# B2: AB1886-TriNKET® (bispecific antibody, human IgG1, kappa)
# chain: B1 chain with V168I
# heavy: B1 heavy
# light: B1 light
# notes: F3′ format; also called AB1886-VL-VH TriNKET®; 10F10-IGHV3-11*01 BM1
# B3: AB1884-TriNKET® (bispecific antibody, human IgG1, kappa)
# chain: B1 chain with K144Q, V179I, S180A
# heavy: B1 heavy
# light: B1 light
# notes: F3′ format; also called AB1884-VL-VH TriNKET®; 10F10-IGHV3-48*01 BM2
# B4: AB1892-TriNKET® (bispecific antibody, human IgG1, kappa)
# chain: B1 chain with V136L, K144Q, A206S, S209T
# heavy: B1 heavy
# light: B1 light
# notes: F3′ format; also called AB1892-VL-VH TriNKET®; 10F10-IGHV3-23*03 BM1
# B5: AB1887-TriNKET® (bispecific antibody, human IgG1, kappa)
# chain: B1 chain with V179I, S180A
# heavy: B1 heavy
# light: B1 light
# notes: F3′ format; also called AB1887-VL-VH TriNKET®; 10F10-IGHV3-21*05 BM2
# B6: AB1885-TriNKET® (bispecific antibody, human IgG1, kappa)
# chain: B1 chain with E132Q, V179I, S180A
# heavy: B1 heavy
# light: B1 light
# notes: F3′ format; also called AB1885-VL-VH TriNKET®; 10F10-IGHV3-11*01 BM2
# B7: AB1882-TriNKET® (bispecific antibody, human IgG1, kappa)
# chain: B1 chain with K144Q
# heavy: B1 heavy
# light: B1 light
# notes: F3′ format; also called AB1882-VL-VH TriNKET®; 10F10-IGHV3-48*01 BM1
# B8: AB1881-TriNKET® (bispecific antibody, human IgG1, kappa)
# chain: B1 chain with V136L, K144Q, V179I, S180A, S209T
# heavy: B1 heavy
# light: B1 light
# notes: F3′ format; also called AB1881-VL-VH TriNKET®; 10F10-IGHV3-23*03 BM2
# B9: AB1011 (antibody, V domains shown)
# VH: EVQLVESGGGLVKPGGSLRLSCAASGFTFSDYGMHWVRQAPGKGLEWVSYISSGSSTFYYADTVKGRFTISRDNAKNSLYLQMNSLRAEDTAVYYCGSSQSYYRGTMDYWGQGTTVTVSS
# VL: DIQLTQSPSSLSASVGDRVTITCRASQGVSTSTYTYMHWFQQKPGKAPKLLIKFASNLESGVPSRFSGSGSGTDFTLTISSLQPEDFATYYCQHSWEIPWTFGGGTKVEIK
# notes: member of the group m33
# B10: AB1013 (antibody, V domains shown)
# VH: B9 VH
# VL: B9 VL with M37V
# notes: member of the group m33
# B11: AB1016 (antibody, V domains shown)
# VH: B9 VH with M107I
# VL: B9 VL with M37V
# notes: member of the group m33
# B12: AB1014 (antibody, V domains shown)
# VH: B9 VH with M107I
# VL: B9 VL
# notes: member of the group m33
# B13: AB1012 (antibody, V domains shown)
# VH: B9 VH
# VL: B9 VL with M37L
# notes: member of the group m33
# B14: AB1015 (antibody, V domains shown)
# VH: B9 VH with M107I
# VL: B9 VL with M37L
# notes: member of the group m33
# B15: AB1890-TriNKET® (bispecific antibody, human IgG1, kappa)
# chain: DIQLTQSPSSLSASVGDRVTITCRASQGVSTSTYTYMHWFQQKPGKAPKLLIKFASNLESGVPSRFSGSGSGTDFTLTISSLQPEDFATYYCQHSWEIPWTFGCGTKVEIKGGGGSGGGGSGGGGSGGGGSEVQLLESGGGLVQPGGSLRLSCAASGFTFSDYGMHWVRQAPGKCLEWVSYISSGSSTFYYADTVKGRFTISRDNSKNTLYLQMNSLRAEDTAVYYCGSSQSYYRGTMDYWGQGTTVTVSSGSDKTHTCPPCPAPELLGGPSVFLFPPKPKDTLMISRTPEVTCVVVDVSHEDPEVKFNWYVDGVEVHNAKTKPREEQYNSTYRVVSVLTVLHQDWLNGKEYKCKVSNKALPAPIEKTISKAKGQPREPRVYTLPPCRDELTKNQVSLTCLVKGFYPSDIAVEWESNGQPENNYKTTPPVLVSDGSFTLYSKLTVDKSRWQQGNVFSCSVMHEALHNHYTQKSLSLSPG
# heavy: B1 heavy
# light: B1 light
# notes: F3′ format; also called AB1890-VL-VH TriNKET®; 11F09-IGHV3-23*03 BM1-YB
# B16: AB1893-TriNKET® (bispecific antibody, human IgG1, kappa)
# chain: B15 chain with V179L, S180A, S206A
# heavy: B1 heavy
# light: B1 light
# notes: F3′ format; also called AB1893-VL-VH TriNKET®; 11F09-IGHV3-23*03 BM2-YB
# B17: AB1888-TriNKET® (bispecific antibody, human IgG1, kappa)
# chain: B15 chain with L136V, Q144K, S206A, T209S
# heavy: B1 heavy
# light: B1 light
# notes: F3′ format; also called AB1888-VL-VH TriNKET®; 11F09-IGHV3-21*05 BM1-YB
# B18: AB1883-TriNKET® (bispecific antibody, human IgG1, kappa)
# chain: B15 chain with E132Q, L136V, Q144K, V179L, S180A, S206A, T209S
# heavy: B1 heavy
# light: B1 light
# notes: F3′ format; also called AB1883-VL-VH TriNKET®; 11F09-IGHV3-11*01 BM2-YB
# B19: AB1880-TriNKET® (bispecific antibody, human IgG1, kappa)
# chain: B15 chain with L136V, Q144K, A154E, V179L, S180A, S206A, T209S
# heavy: B1 heavy
# light: B1 light
# notes: F3′ format; also called AB1880-VL-VH TriNKET®; 11F09-IGHV3-21*05 BM2-YB
# B20: AB1891-TriNKET® (bispecific antibody, human IgG1, kappa)
# chain: B15 chain with L136V, Q144K, V168I, S206A, T209S
# heavy: B1 heavy
# light: B1 light
# notes: F3′ format; also called AB1891-VL-VH TriNKET®; 11F09-IGHV3-11*01 BM1-YB
# B21: AB1879-TriNKET® (bispecific antibody, human IgG1, kappa)
# chain: B15 chain with L136V, S206A, T209S
# heavy: B1 heavy
# light: B1 light
# notes: F3′ format; also called AB1879-VL-VH TriNKET®; 11F09-IGHV3-48*01 BM1-YB
# B22: AB1889-TriNKET® (bispecific antibody, human IgG1, kappa)
# chain: B15 chain with L136V, V179L, S180A, S206A, T209S
# heavy: B1 heavy
# light: B1 light
# notes: F3′ format; also called AB1889-VL-VH TriNKET®; 11F09-IGHV3-48*01 BM2-YB
# B23: AB1018 (antibody, V domains shown)
# VH: B9 VH with A23E, V48L, S49A
# VL: B9 VL with M37L
# notes: member of the group m33
# B24: AB1019 (antibody, V domains shown)
# VH: B9 VH with A23E, V48L, S49A
# VL: B9 VL with M37V
# notes: member of the group m33
# B25: AB1017 (antibody, V domains shown)
# VH: B9 VH with A23E, V48L, S49A
# VL: B9 VL
# notes: member of the group m33
# Biological target: T1, human 5T4 on the cell surface
# Experiment: cell binding assay on 5T4-expressing tumor cells (cell line not given)
EC50 [nM],Max Fold Over Background (FOB) [fold over background],Binder
10.1,71.6,B1
5.65,73.5,B2
6.08,70.5,B3
4.21,60,B4
10.2,75,B5
5.37,68,B6
8.55,71.8,B7
7.28,72.5,B8

# Biological target: T1, human 5T4 on the cell surface
# Experiment: flow cytometry on H1975 cells, FOB
row,binding result,Binder
1,binds,B9
2,binds,B10
3,binds,B11
4,binds,B12
5,binds,B13
6,binds,B14

# Biological target: T1, human 5T4 on the cell surface
# Experiment: cell binding assay on 5T4-expressing tumor cells (cell line not given)
# Remark: another data set of the same source
EC50 [nM],Max Fold Over Background (FOB) [fold over background],Binder
5.62,65.9,B15
15.9,70.8,B16
18.5,22.1,B17
6.02,69.4,B18
21.7,48.5,B19
50.5,40.1,B20
9.18,62.9,B21
20.7,11.7,B22

# Biological target: T1, human 5T4 on the cell surface
# Experiment: flow cytometry on H1975 cells, FOB
# Remark: another data set of the same source
row,binding result,Binder
1,binds,B23
2,binds,B24
3,binds,B25
